Results from paper PMC5716173.
Where two headings read alike, the source gives them in different places.

How the values were obtained:
Experiment in all cases: fluorescence anisotropy
[1] = biological target: T1, PabPolB exo- (family B DNA polymerase, exonuclease-deficient) (Pyrococcus abyssi, UniProt P0CL77 1-771, D215A)
T1 sequence: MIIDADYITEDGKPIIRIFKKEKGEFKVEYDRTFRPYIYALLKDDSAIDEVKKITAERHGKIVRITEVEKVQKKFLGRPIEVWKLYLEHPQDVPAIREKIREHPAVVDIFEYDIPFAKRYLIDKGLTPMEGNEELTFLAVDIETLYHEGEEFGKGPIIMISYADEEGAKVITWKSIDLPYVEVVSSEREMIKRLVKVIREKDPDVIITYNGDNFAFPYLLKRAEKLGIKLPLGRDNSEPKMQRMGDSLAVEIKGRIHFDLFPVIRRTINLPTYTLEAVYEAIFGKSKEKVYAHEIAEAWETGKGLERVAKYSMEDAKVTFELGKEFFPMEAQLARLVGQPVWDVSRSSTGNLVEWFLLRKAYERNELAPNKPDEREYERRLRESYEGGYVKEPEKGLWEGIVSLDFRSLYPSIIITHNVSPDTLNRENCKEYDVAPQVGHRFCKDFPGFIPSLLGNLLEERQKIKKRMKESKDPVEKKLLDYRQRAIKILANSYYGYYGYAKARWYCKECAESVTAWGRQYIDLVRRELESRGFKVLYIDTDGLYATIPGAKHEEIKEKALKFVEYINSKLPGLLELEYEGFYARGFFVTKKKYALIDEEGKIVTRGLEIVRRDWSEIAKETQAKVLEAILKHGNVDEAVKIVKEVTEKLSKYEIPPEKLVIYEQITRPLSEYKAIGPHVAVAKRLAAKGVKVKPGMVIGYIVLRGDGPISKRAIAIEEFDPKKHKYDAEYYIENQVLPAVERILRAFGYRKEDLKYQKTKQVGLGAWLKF

[2] = biological target: T1, PabPolB exo- (family B DNA polymerase, …); remark: listed apart in the source
[3] = biological target: T1, PabPolB exo- (family B DNA polymerase, …); remark: listed apart in the source
[4] = biological target: T1, PabPolB exo- (family B DNA polymerase, …); remark: listed apart in the source
[5] = biological target: T1, PabPolB exo- (family B DNA polymerase, …); remark: listed apart in the source
[6] = biological target: T1, PabPolB exo- (family B DNA polymerase, …); remark: listed apart in the source

B1: HEX-labeled primer/template 18/25 (dsDNA)
DNA 1: CGCCGGGCCGAGCCGTGC
DNA 2: AGGTCGTGCACGGCTCGGCCCGGCG
B1 gave a Kd [1] of 38 ± 6 nM, a Kd [2] of 43 ± 6 nM and a Kd [3] of 20 ± 6 nM. It also gave a Kd [4] of 7 ± 1 nM, a Kd [5] of 17 ± 2 nM and a Kd [6] of 25 ± 3 nM.
